Measurements taken from the supplement of paper PMC9112550, “Optimization of the antimicrobial peptide Bac7 by deep mutational scanning” (BMC Biology, 2022).

Tested on: Escherichia coli TOP10
Assay: shrunken log2 fold change of peptide-encoding DNA abundance (4.5 h post-induction vs induction); higher = less antimicrobial activity (less host growth inhibition)
Conditions: time post-induction: 4.5 h; library: site-saturation at positions 5, 18, 19, 20
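Also: peptides expressed intracellularly from a pBAD plasmid library in pooled LB shake-flask culture, induced with 0.3% L-arabinose, DNA abundance read by NGS, three biological replicates, DESeq2 with apeglm shrinkage.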

Sequence	shrunken log2 fold change
RRIRARPPRLPRPRPRPSGYPRP	0.094
RRIRFRPPRLPRPRPRPGYGPRP	0.019
RRIRYRPPRLPRPRPRPDCMPRP	0.0186
RRIRSRPPRLPRPRPRPIYQPRP	-0.158
RRIRSRPPRLPRPRPRPWPMPRP	-0.111
RRIRGRPPRLPRPRPRPADVPRP	0.508
RRIRIRPPRLPRPRPRPCFQPRP	-0.391
RRIRVRPPRLPRPRPRPQDWPRP	-0.132
RRIRHRPPRLPRPRPRPPSVPRP	0.241
RRIRLRPPRLPRPRPRPTRSPRP	0.467
RRIRDRPPRLPRPRPRPKRHPRP	0.214
RRIRRRPPRLPRPRPRPMFCPRP	0.235
RRIRDRPPRLPRPRPRPAPPPRP	0.71
RRIRHRPPRLPRPRPRPQKCPRP	-0.0302
RRIRDRPPRLPRPRPRPTIMPRP	-0.347
RRIRQRPPRLPRPRPRPFNLPRP	-0.649
RRIRHRPPRLPRPRPRPMKPPRP	-0.0628
RRIRARPPRLPRPRPRPLVLPRP	0.157
RRIRQRPPRLPRPRPRPENPPRP	0.0317
RRIRARPPRLPRPRPRPEWHPRP	0.381
RRIRVRPPRLPRPRPRPRHSPRP	0.292
RRIRRRPPRLPRPRPRPEGQPRP	0.131
RRIRWRPPRLPRPRPRPKNIPRP	-0.159
RRIRCRPPRLPRPRPRPICWPRP	0.202
RRIRPRPPRLPRPRPRPAHVPRP	0.0491

Sequence	shrunken log2 fold change
RRIRIRPPRLPRPRPRPGLQPRP	0.0696
RRIRYRPPRLPRPRPRPKPFPRP	0.0506
RRIRPRPPRLPRPRPRPFASPRP	0.132
RRIRVRPPRLPRPRPRPYMTPRP	-0.566
RRIRARPPRLPRPRPRPFTGPRP	-0.00992
RRIRYRPPRLPRPRPRPEPVPRP	-0.00973
RRIRIRPPRLPRPRPRPGYMPRP	-0.442
RRIRDRPPRLPRPRPRPVPYPRP	-0.244
RRIRARPPRLPRPRPRPCRMPRP	-0.353
RRIRARPPRLPRPRPRPEYKPRP	-0.0123
RRIRNRPPRLPRPRPRPYSHPRP	-0.317
RRIRCRPPRLPRPRPRPGCPPRP	0.239
RRIRWRPPRLPRPRPRPIHSPRP	-0.0401
RRIRERPPRLPRPRPRPPACPRP	0.0779
RRIRTRPPRLPRPRPRPGEQPRP	0.15
RRIRGRPPRLPRPRPRPTYPPRP	0.0703
RRIRTRPPRLPRPRPRPSIKPRP	-0.556
RRIRIRPPRLPRPRPRPGCVPRP	-0.00757
RRIRRRPPRLPRPRPRPVTKPRP	0.28
RRIRKRPPRLPRPRPRPYMIPRP	-0.415
RRIRARPPRLPRPRPRPKDVPRP	0.0479
RRIRARPPRLPRPRPRPISLPRP	-0.0678
RRIRPRPPRLPRPRPRPFPHPRP	-0.129
RRIRTRPPRLPRPRPRPIGPPRP	0.0411
RRIRDRPPRLPRPRPRPKIMPRP	0.199

Sequence	shrunken log2 fold change
RRIRSRPPRLPRPRPRPVVAPRP	0.608
RRIRLRPPRLPRPRPRPIDWPRP	-0.00448
RRIRARPPRLPRPRPRPRYKPRP	0.0679
RRIRERPPRLPRPRPRPWEEPRP	-0.0572
RRIRTRPPRLPRPRPRPIDGPRP	0.0685
RRIRERPPRLPRPRPRPAMTPRP	0.0328
RRIRMRPPRLPRPRPRPVVDPRP	0.0138
RRIRMRPPRLPRPRPRPCNCPRP	-0.0499
RRIRKRPPRLPRPRPRPFLAPRP	0.169
RRIRLRPPRLPRPRPRPGDDPRP	0.431
RRIRFRPPRLPRPRPRPKMGPRP	-0.122
RRIRVRPPRLPRPRPRPDPSPRP	0.226
RRIRKRPPRLPRPRPRPNPSPRP	0.108
RRIRHRPPRLPRPRPRPDACPRP	-0.0498
RRIRVRPPRLPRPRPRPTQAPRP	0.55
RRIRCRPPRLPRPRPRPCLQPRP	-0.129
RRIRCRPPRLPRPRPRPIQTPRP	0.299
RRIRWRPPRLPRPRPRPCFNPRP	-0.382
RRIRMRPPRLPRPRPRPSPFPRP	0.124
RRIRSRPPRLPRPRPRPMHAPRP	0.562
RRIRERPPRLPRPRPRPRKWPRP	0.316
RRIRNRPPRLPRPRPRPARPPRP	2.86
RRIRHRPPRLPRPRPRPAQWPRP	0.112
RRIRRRPPRLPRPRPRPDIEPRP	0.172
RRIRRRPPRLPRPRPRPHIDPRP	-0.43

Sequence	shrunken log2 fold change
RRIRSRPPRLPRPRPRPAQYPRP	0.0401
RRIRIRPPRLPRPRPRPVDVPRP	-0.675
RRIRFRPPRLPRPRPRPWLWPRP	-0.052
RRIRNRPPRLPRPRPRPARKPRP	0.0797
RRIRNRPPRLPRPRPRPAWRPRP	0.526
RRIRNRPPRLPRPRPRPVMAPRP	0.156
RRIRRRPPRLPRPRPRPKQEPRP	0.0674
RRIRGRPPRLPRPRPRPKTHPRP	0.947
RRIRERPPRLPRPRPRPYKCPRP	-0.122
RRIRARPPRLPRPRPRPICYPRP	-0.0212
RRIRQRPPRLPRPRPRPATLPRP	-0.0197
RRIRSRPPRLPRPRPRPQPDPRP	-0.185
RRIRVRPPRLPRPRPRPAWPPRP	0.537
RRIRTRPPRLPRPRPRPVCYPRP	-0.531
RRIRGRPPRLPRPRPRPADMPRP	0.373
RRIRARPPRLPRPRPRPTLAPRP	1.65
RRIRCRPPRLPRPRPRPLYNPRP	-1.22
RRIRKRPPRLPRPRPRPALIPRP	0.2
RRIRTRPPRLPRPRPRPIVQPRP	0.0444
RRIRNRPPRLPRPRPRPHYTPRP	-0.0895
RRIRYRPPRLPRPRPRPGVAPRP	0.182
RRIRYRPPRLPRPRPRPNSGPRP	-0.01
RRIRWRPPRLPRPRPRPAPQPRP	0.743
RRIRHRPPRLPRPRPRPESKPRP	-0.135
RRIRRRPPRLPRPRPRPEFCPRP	0.579

Sequence	shrunken log2 fold change
RRIRVRPPRLPRPRPRPQRAPRP	0.348
RRIRWRPPRLPRPRPRPGIHPRP	0.11
RRIRKRPPRLPRPRPRPPWTPRP	0.527
RRIRWRPPRLPRPRPRPVEAPRP	0.249
RRIRARPPRLPRPRPRPCDDPRP	-0.0166
RRIRERPPRLPRPRPRPAMLPRP	-0.155
RRIRDRPPRLPRPRPRPTSGPRP	0.151
RRIRDRPPRLPRPRPRPDARPRP	1.31
RRIRARPPRLPRPRPRPMMHPRP	0.184
RRIRQRPPRLPRPRPRPHPHPRP	-0.136
RRIRNRPPRLPRPRPRPLALPRP	-0.239
RRIRLRPPRLPRPRPRPLAEPRP	0.289
RRIRVRPPRLPRPRPRPADQPRP	0.0278
RRIRFRPPRLPRPRPRPNTGPRP	-0.165
RRIRARPPRLPRPRPRPIENPRP	0.203
RRIRQRPPRLPRPRPRPFFAPRP	0.414
RRIRKRPPRLPRPRPRPICCPRP	0.583
RRIRFRPPRLPRPRPRPHVDPRP	-0.00919
RRIRLRPPRLPRPRPRPYIEPRP	-0.176
RRIRARPPRLPRPRPRPFCYPRP	0.0576
RRIRQRPPRLPRPRPRPNDKPRP	-0.335
RRIRFRPPRLPRPRPRPGKPPRP	-0.0809
RRIRSRPPRLPRPRPRPQFNPRP	-0.498
RRIRRRPPRLPRPRPRPWLNPRP	-0.0295
RRIRQRPPRLPRPRPRPAHVPRP	-0.139

Sequence	shrunken log2 fold change
RRIRKRPPRLPRPRPRPCCMPRP	0.103
RRIRWRPPRLPRPRPRPHCGPRP	-0.0645
RRIRARPPRLPRPRPRPFTTPRP	-0.0831
RRIRNRPPRLPRPRPRPNTGPRP	0.0312
RRIRCRPPRLPRPRPRPWIWPRP	-0.128
RRIRGRPPRLPRPRPRPYTNPRP	-0.313
RRIRHRPPRLPRPRPRPISSPRP	-0.202
RRIRWRPPRLPRPRPRPMRLPRP	0.905
RRIRLRPPRLPRPRPRPWRSPRP	-0.0908
RRIRLRPPRLPRPRPRPGEWPRP	-0.00947
RRIRHRPPRLPRPRPRPLFAPRP	0.107
RRIRIRPPRLPRPRPRPIVDPRP	-0.0819
RRIRSRPPRLPRPRPRPILVPRP	0.0112
RRIRPRPPRLPRPRPRPEWGPRP	0.42
RRIRMRPPRLPRPRPRPDWQPRP	0.198
RRIRNRPPRLPRPRPRPWNCPRP	-0.0415
RRIRKRPPRLPRPRPRPFYYPRP	-0.587
RRIRNRPPRLPRPRPRPEESPRP	0.013
RRIRHRPPRLPRPRPRPPKWPRP	0.345
RRIRIRPPRLPRPRPRPCRGPRP	0.0305
RRIRMRPPRLPRPRPRPLRPPRP	1.76
RRIRGRPPRLPRPRPRPHRKPRP	0.101
RRIRCRPPRLPRPRPRPDIAPRP	0.38
RRIRPRPPRLPRPRPRPRDVPRP	0.0755
RRIRCRPPRLPRPRPRPYWMPRP	-1.07
